Experimental data as given in patent publication US6967100B2, “Pancreatic islet cell growth factors” (The Walter and Eliza Hall Institute of Medical Research, priority 2000, dated 2005).

Experiments:
Format in all cases: cell-based
[1] = test system: E15.5 CBA mouse fetal pancreas cells; experiment: Cystic colony formation of E15.5 fetal mouse pancreas cells in laminin-1 overlay culture; conditions: BMP alone
[2] = test system: E15.5 CBA mouse fetal pancreas cells; experiment: as above; conditions: laminin-1 160 μg/ml
Protocol: Pancreata were dissected from embryonic day (E)15.5 CBA mouse fetuses and dissociated into single cells as described (Jiang et al., 1999). Briefly, dissected pancreas was digested with trypsin/EDTA for 15 minutes at 37° C. in a shaking water bath. Cells were counted in a haemocytometer and viability determined by trypan blue dye exclusion. Each fetal pancreas yielded 50,000 viable cells (48,509±11,299, n=14). Dissociated cells were plated in 8 well chamber slides (Nunc, Naperville, USA) at 7.5×10^4 cells/well in 0.3 ml AIM V medium supplemented with N-2 (1:100, Gibco BRL Life Technologies, Gaithersburg, USA), 500 UI/ml penicillin and 500 μg/ml streptomycin. Laminin-1 (160 μg/ml), purified from murine Engelbreth-Holm-Swarm tumor basement membrane (Becton Dickinson Labware, Bedford, USA), was overlayed on cells in the presence of various growth factors. Cultures were incubated in 10% CO2 90% air at 37° C., for up to 6 days. Recombinant human BMP 6 and BMP 5, recombinant human TGF-β1 and recombinant activin A were purchased from R&D Systems (Minneapolis, USA). These factors, dissolved at a concentration of 10 ng/μl in mouse tonicity phosphate buffered saline (PBS) containing 0.1% w/v bovine serum albumin (BSA), were added at the start of culture. Phase contrast images of colonies were photographed with Olympus IX70 digitized camera.
Colony formation was assessed at day 6 of culture. A colony was defined as a cellular sphere ≧30 μm in diameter, which contained more than 20 cells. The number of colonies per well was counted directly under a inverted microscope at ×10. Colony counts were performed using a blind design.

C2C12 myoblasts = experiment: C2C12 cell BMP bioassay (transformation of myoblasts into alkaline phosphatase-containing osteoblasts); conditions: conditioned medium of stably transfected CHO cells, compared to medium of untransfected CHO cells
Protocol: BMP activity was measured in the C2C12 cell bioassay, in which BMPs transform C2C12 myoblasts into alkaline phosphatase-containing osteoblasts (Katagiri et al., 1994). Briefly, CHO cells were plated at a density of around 5×10^6 per 75 cm^2 flask in serum-free HYBRIDOMA medium (Gibco BRL Life Technology) (SFHM) containing 10% v/v FCS. Once the cells had reached confluency, the medium was removed, the cells washed twice with SFHM and 10 ml of SFHM then added to each flask. The cells were cultured for four days and the conditioned medium collected, filtered through a 2 micron filter and stored at 4° C.
2×10^3 C2C12 cells were plated into each well of a 96-well tissue culture plate in DME/10% v/v FCS. Twenty-four hours later, the medium was removed and replaced with 100 μl SFHM/1% v/v FCS. 50 μl of each conditioned medium was added in duplicate to the top row of the 96-well plate and the volume of these wells then made up to 200 μl. Using a multi-channel pipette, 100 μl from each well was then serially transferred to subsequent rows thus diluting the conditioned medium 2-fold with each transfer. After incubation for five days, the media were discarded and the cells washed with normal saline. Cells were lysed for 10 mins at room temperature (RT) in 100 μl 0.5% v/v TritonX-100 and 100 mM diethanolamine (pH 9.5) in normal saline. To each well was then added an aqueous solution containing 10 mM diethanolamine, 1 mg/ml p-nitrophenyl phosphate (PNPP) and 0.5 mM MgCl2. The yellow reaction product catalyzed by alkaline phosphatase was allowed to develop for 10-60 mins before reading absorption at 415 nm.

B1: BMP 6: recombinant human BMP 6 purchased from R&D Systems (protein, UniProt P22004 375-513, looked up)
Bone morphogenetic protein 6: SASSRRRQQSRNRSTQSQDVARVSSASDYNSSELKTACRKHELYVSFQDLGWQDWIIAPKGYAANYCDGECSFPLNAHMNATNHAIVQTLVHLMNPEYVPKPCCAPTKLNAISVLYFDDNSNVILKKYRNMVVRACGCH
With B1 the “colony formation in the absence of laminin-1” value [1] was “no effect”, the “concentration of maximal stimulation of colony formation” value ([2]; day 6, fewer colonies at higher concentrations) was 10 ng/mL and the “formation of cystic colonies in the presence of laminin-1” value ([2]; up to 6 days) was “synergized with laminin-1 to promote formation of cystic colonies”. The “BMP activity of conditioned medium (alkaline phosphatase activity of C2C12 cells)” value (C2C12 myoblasts) was “significant BMP activity was never detected”.
